Laboratory results: patent US8431396B2, “Anti-angiogenic peptides” (The Cleveland Clinic Foundation, priority 2003, dated 2013)

Key:
KDR [1] = target: T1, KDR (Homo sapiens, UniProt P35968); assay: [125I]VEGF binding to the surface of PAE-KDR cells; details: pretreatment with recombinant protein
T1 construct: To determine whether these receptor isoforms represent full-length VEGFR-2; expressed in transfected cells; host or cells: porcine aortic endothelial (PAE) cells
Protocol: Radioligand binding is expressed as percent binding and is the mean±s.e.m. of triplicate samples. […] All values are expressed as mean±s.e.m. of triplicate samples. […] Binding is expressed as mean±s.e.m.
Data were analyzed by Scatchard plot analyses.

PAEKDR cells [2] = assay: VEGF-stimulated proliferation ([3H]thymidine) of transfected PAEKDR cells; assay type: cell-based, porcine; details: VEGF 15 ng/ml
Protocol: Cells were seeded at a density of 5000 cells/well in 24 well culture plates and cultured for 24 h in growth medium. […] High molecular weight DNA was precipitated using 5% trichloroacetic acid at 4° C. for 30 min After two washes with ice-cold H2O, 3H radioactivity was solubilized in 1 N NaOH for 20 min at room temperature, acidified by addition of 2 N HCl, and measured using a liquid scintillation counter. Each sample was assayed in triplicate and the assays were repeated at least twice.

soluble FLT1-IgG = target: T2, soluble FLT1-IgG (Homo sapiens, UniProt P17948); assay: Solid-phase binding of [125I]VEGF165 to soluble FLT1-IgG; details: similar doses as for KDR-IgG
T2 construct: purchased R&D Systems
Protocol: (B) Expression of KDR in the lysate and plasma membrane (PM) of PAE-KDR and PAE-KDR-TIMP3 was analyzed by immunoprecipitation (Ip) and western blot (Ib) analysis with antibody specific for KDR. […] Values are the mean±s.e.m. of triplicate wells.
Soluble KDR-Fc or FLT1-Fc (50 ng) was added to each well. […] After washing, the bound protein was solubilized with 1% SDS and 1 M NaOH and radioactivity measured in a γ-counter.

PAEKDR cells [3] = assay: VEGF-stimulated migration (modified Boyden chamber) of transfected PAEKDR cells; assay type: cell-based, porcine; details: VEGF 50 ng/ml
Protocol: A modified Boyden chamber assay was carried out as described previously 34. Briefly, 8.0 μm pore PVPF polycarbonate membranes were pre-coated with 100 μg/ml collagen type I in 0.2 N acetic acid (Cohesion technologies, INC. Pala Alto, Calif.). […] Chamber was then incubated for 4 hrs at 37° C. in a 5% CO2 humidified incubator. Cells remaining on the top of the filter were removed. Cells on the bottom surface of the filter were fixed, stained and mounted. The number of migrating cells per well was counted microscopically.

KDR [4] = target: T1, KDR; assay: VEGF-stimulated KDR tyrosine phosphorylation in membrane fractions (Western blot); assay type: cell-based; details: WT-TIMP3 cells; data not shown
Protocol: 2 day serum free conditioned medium (CM) was collected from subconfluent cells cultured on six-well plates (Costar). In some cases the CM was further concentrated with heparin-agarose gels (Bio-rad). The cell monolayer was dislodged from the culture plates following a 10 min incubation in Ca2+, Mg2+ free phosphate buffered saline (PBS) containing 2.5 mM EDTA. After several rinses in PBS and water, the ECM was scraped in a small volume of electrophoresis sample buffer without reducing agent for analyses. Plasma membrane (PM) fractions were prepared from cells centrifuged at 500 g and 4° C. for 5 min The supernatant was discarded and the cell pellets were resuspended in PBS containing protease inhibitors, lysed with a 26-gauge syringe needle, and centrifuged at 3,000 g at 4° C. for 15 minutes. The supernatant was centrifuged at […] at 4° C. for 1 hr. The PM pellets were suspended in lysis buffer containing protease inhibitors. In some instances the membrane fraction of cells was prepared using ProteoExtract Subcellular Proteome Extaction Kit (EMD Biosciences, Inc).
Cell fractions or immunoprecipitates of the lysates with the indicated antibodies were subjected to SDS-PAGE. Proteins were detected with either a HRP-conjugated anti-rabbit or anti mouse IgG antibody (Amersham Pharmacia Biotech., Piscataway, N.J.) followed by ECL. […]

ERK1 and ERK2 = ERK1 and ERK2 phosphorylation (immunoblot); assay type: cell-based; details: recombinant TIMP3
Protocol: PDGF-BB-mediated phosphorylation was examined similarly in PAESPDGFR-β cells (anti-PDGFR-β; top right panel). […] PDGF-BB-mediated phosphorylation of PDGFR-β in PAE-PDGFR-β cells overexpressing TIMP3 (top right). KDR protein or PDGFR-β protein was analyzed by both immunoprecipitation and immunoblotting with antibodies specific for KDR (left) or for PDGFR-β (right; A and B, second panels from top). […] Total protein levels of ERK were determined by immunoblotting with antibodies specific for ERK1/2 (anti-ERK1/2; A and B, bottom).
Cell fractions, prepared as described earlier, or immunoprecipitates of the lysates with the indicated antibodies, were subjected to SDS-PAGE. Proteins were detected with horseradish peroxidase-conjugated antibodies specific for either rabbit or mouse IgG (Amersham Pharmacia, Piscataway, N.J.) followed by enhanced chemiluminescence.

MMPs = assay: Reverse zymography of ECM and CM of transfected PAEKDR cells; assay type: biochemical; details: PAEKDR cells expressing WT or mutant TIMP3
Protocol: Conditioned medium, cell lysates and ECM fractions from transfected cells were prepared as described previously (Qi et al., 2002). Equal amounts of protein were loaded onto a 12% gel with 1 mg/ml gelatin plus RPE cell-conditioned media, as a source of MMPs, for reverse zymography and processed as described previously (Pavloff et al., 1992).

PAE-KDR cells = assay: Endothelial cell migration toward VEGF (modified Boyden chamber); assay type: cell-based, porcine
Protocol: (B) Comparison of the effects of rTIMP3, rTIMP1 and BB3103 on VEGF165-induced migration of PAE-KDR cells. […] In all migration experiments, migrating cell number is expressed as mean±s.e.m. of quadruplicate samples. All experiments were done in triplicate. Open symbols, KDR-vector; closed symbols, KDR-TIMP3.*, P<0.01; **, P<0.05.
A modified Boyden chamber assay for migration and proliferation assays were carried out as described.

PAE-PDGFR-β cells = assay: Endothelial cell proliferation in response to PDGF-BB; assay type: cell-based, porcine; details: recombinant TIMP3 (1 and 5 μg/ml) or overexpression

T1 sequence (P35968 20-1356): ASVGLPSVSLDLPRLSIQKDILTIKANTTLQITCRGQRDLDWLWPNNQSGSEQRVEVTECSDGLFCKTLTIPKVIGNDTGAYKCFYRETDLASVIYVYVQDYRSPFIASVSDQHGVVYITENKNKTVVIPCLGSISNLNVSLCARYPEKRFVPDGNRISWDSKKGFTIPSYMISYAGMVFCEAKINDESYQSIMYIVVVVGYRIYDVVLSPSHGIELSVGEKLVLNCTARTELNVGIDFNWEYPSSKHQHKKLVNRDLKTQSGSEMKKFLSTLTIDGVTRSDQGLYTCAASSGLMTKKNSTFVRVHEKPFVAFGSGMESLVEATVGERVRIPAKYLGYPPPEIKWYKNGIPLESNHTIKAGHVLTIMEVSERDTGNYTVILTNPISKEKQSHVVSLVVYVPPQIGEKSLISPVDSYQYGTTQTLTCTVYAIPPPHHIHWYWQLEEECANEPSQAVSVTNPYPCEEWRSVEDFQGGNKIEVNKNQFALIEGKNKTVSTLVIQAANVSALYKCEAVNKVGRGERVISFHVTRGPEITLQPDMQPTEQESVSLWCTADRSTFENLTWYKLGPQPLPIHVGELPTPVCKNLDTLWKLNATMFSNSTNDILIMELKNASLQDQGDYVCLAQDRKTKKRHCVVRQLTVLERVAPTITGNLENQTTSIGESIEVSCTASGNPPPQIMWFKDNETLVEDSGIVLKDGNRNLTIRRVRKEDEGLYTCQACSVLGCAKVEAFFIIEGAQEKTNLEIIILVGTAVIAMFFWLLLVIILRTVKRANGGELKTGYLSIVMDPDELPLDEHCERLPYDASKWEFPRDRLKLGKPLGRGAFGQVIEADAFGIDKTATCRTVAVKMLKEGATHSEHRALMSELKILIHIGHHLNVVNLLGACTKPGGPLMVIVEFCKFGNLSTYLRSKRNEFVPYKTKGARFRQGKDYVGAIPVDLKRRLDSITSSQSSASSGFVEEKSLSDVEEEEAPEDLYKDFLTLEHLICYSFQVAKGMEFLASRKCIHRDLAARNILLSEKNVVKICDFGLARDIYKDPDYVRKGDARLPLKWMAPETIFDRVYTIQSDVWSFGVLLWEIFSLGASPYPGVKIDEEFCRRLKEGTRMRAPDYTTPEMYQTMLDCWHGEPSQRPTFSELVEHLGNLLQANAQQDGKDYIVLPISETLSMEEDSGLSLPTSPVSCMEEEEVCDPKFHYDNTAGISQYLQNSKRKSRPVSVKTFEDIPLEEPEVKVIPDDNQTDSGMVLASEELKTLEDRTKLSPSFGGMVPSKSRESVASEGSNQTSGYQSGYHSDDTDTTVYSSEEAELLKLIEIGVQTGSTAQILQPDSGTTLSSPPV
T2 sequence (P17948 27-758 limits assumed): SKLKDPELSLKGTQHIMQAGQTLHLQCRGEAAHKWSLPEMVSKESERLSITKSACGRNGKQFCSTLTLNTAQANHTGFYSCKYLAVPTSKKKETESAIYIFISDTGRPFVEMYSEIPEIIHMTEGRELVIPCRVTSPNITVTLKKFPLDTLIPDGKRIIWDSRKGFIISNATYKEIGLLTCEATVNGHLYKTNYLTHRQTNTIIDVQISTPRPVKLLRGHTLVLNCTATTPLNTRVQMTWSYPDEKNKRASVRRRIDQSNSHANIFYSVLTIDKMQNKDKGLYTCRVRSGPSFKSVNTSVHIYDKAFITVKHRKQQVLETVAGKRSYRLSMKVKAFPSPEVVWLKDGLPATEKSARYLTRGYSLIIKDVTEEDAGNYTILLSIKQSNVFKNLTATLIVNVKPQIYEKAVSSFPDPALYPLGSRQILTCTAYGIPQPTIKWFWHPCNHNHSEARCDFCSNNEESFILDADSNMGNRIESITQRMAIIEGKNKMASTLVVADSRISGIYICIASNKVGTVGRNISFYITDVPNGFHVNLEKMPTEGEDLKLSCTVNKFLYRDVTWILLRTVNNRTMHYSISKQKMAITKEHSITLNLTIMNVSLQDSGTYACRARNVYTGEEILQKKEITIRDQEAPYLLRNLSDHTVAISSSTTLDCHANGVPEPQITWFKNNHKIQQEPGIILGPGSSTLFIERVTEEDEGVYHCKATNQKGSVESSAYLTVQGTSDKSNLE

B1: TIMP3: tissue inhibitor of metalloproteinases-3; recombinant human form expressed in NSO myeloma cells, or wild-type expressed in transfected cells (protein, listed as Homo sapiens)
chain: MTPWLGLIVLLGSWSLGDWGAEACTCSPSHPQDAFCNSDIVIRAKVVGKKLVKEGPFGTLVYTIKQMKMYRGFTKMPHVQYIHTEASESLCGLKLEVNKYQYLLTGRVYDGKMYTGLCNFVERWDQLTLSQRKGLNYRYHLGCNCKIKSCYYLPCFVTSKNECLWTDMLSNFGYPGYQSKHYACIRQKGGYCSWYRGWAPPDKSIINATDP
IC50 for inhibition of [125I]VEGF binding to PAE-KDR cells (KDR [1]): 3.3 to 4.5 µg/mL | VEGF-stimulated proliferation of cells expressing TIMP3 variant (PAEKDR cells [2]): dramatic attenuation in the VEGF response | inhibition of [125I]VEGF binding to soluble FLT1-IgG (soluble FLT1-IgG): could not inhibit | VEGF-stimulated migration of cells expressing TIMP3 variant (PAEKDR cells [3]): dramatically reduced basal and VEGF-stimulated migration | receptor autophosphorylation after VEGF stimulation (KDR [4]): no receptor autophosphorylation was seen | downstream phosphorylation of ERK1 and ERK2 in response to VEGF (ERK1 and ERK2): inhibited in response to VEGF | MMP inhibitory activity in ECM and CM (reverse zymography) (MMPs): marked MMP inhibitory species | inhibition of endothelial cell migration toward VEGF (PAE-KDR cells; added exogenously, VEGF165 10 ng/ml): inhibited their migration toward VEGF in a dose-dependent manner | dose giving complete inhibition of migration toward VEGF (PAE-KDR cells; recombinant protein added exogenously): 3 µg/mL | chemotactic response to VEGF121 and VEGF165 (PAE-KDR cells; stable expression of TIMP3 in the endothelial cells): attenuation of the chemotactic response | effect on proliferative response to PDGF-BB (PAE-PDGFR-β cells): Neither recombinant TIMP3 nor TIMP3 overexpression affected the proliferative response
